We go through six molecules from publication PMC6238398, “The crystal structure of Staufen1 in complex with a physiological RNA sheds light on substrate selectivity” (Life Science Alliance, 2018).

Data set [1] deals with T1, dStau dsRBD4 backbone mutant (Drosophila melanogaster, UniProt P25159 570-786, R742A;R744A;K764E;K765A;K768A).
T1 sequence: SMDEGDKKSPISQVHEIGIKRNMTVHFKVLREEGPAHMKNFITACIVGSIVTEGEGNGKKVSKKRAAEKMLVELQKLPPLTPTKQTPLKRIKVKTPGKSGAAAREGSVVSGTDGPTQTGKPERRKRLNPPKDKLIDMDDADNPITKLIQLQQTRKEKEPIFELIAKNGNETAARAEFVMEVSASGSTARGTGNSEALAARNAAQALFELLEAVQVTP
In words: fluorescence anisotropy; FA: 10 nM 5'-FAM RNA, 20 mM Hepes pH 7.5, 150 mM KCl, RT (19-21 C); EMSA: 1 uM RNA, same buffer, 45 min on ice. The conditions noted are these: protein: recombinant; label: 5'-6-FAM; hairpin. For orientation: Polarisation of emitted light reports the rotation of a fluorescent probe.

Data set [2] addresses T2, dStau dsRBD3 backbone mutant (Drosophila melanogaster, UniProt P25159 570-786, H606A;K608A;K628E;K629A).
T2 sequence: T1 sequence with H37A, K39A, K59E, K60A, A173R, A175R, E195K, A196K, A199K
Described as above. The conditions noted are these: protein: recombinant; label: 5'-6-FAM; hairpin.

The target of another data set is T3, dStau S581A Q718A (Drosophila melanogaster, UniProt P25159 570-786, S581A;Q718A).
T3 sequence: T1 sequence with S12A, Q149A, A173R, A175R, E195K, A196K, A199K
The data set is described as above. The note with it: protein: recombinant; label: 5'-6-FAM; hairpin.

Data set [3] concerns the molecule itself. In words: SEC + SEC-MALS; apo proteins on Superdex 200 Increase 10/300 GL with MALLS detector; 20 mM Tris-HCl pH 7.5, 150 mM KCl, RT; 200 ug FL, 350 ug hStau1 182-577 injected. (In gel filtration, larger molecules generally elute earlier.)
In data set [4] the target is hStau1 deltaC (SSM and dsRBD5 removed) (Homo sapiens, UniProt O95793 1-360). Put plainly: fluorescence anisotropy; FA: 10 nM 5'-FAM RNA, 20 mM Hepes pH 7.5, 150 mM KCl, RT (19-21 C); EMSA: 1 uM RNA, same buffer, 45 min on ice. The conditions noted are these: protein: recombinant; label: 5'-6-FAM on sense strand; blunt, two G-U wobbles.
For the next data set, the target named is hStau1 dsRBD3-4 (Homo sapiens, UniProt O95793 182-360). The description is as above. The note with it: protein: recombinant; tags: untagged; chain copies: 2; label: 5'-6-FAM on sense strand; blunt, two G-U wobbles.
The target of another data set is GST-hStau1 dsRBD3-4 (Homo sapiens, UniProt O95793 182-360). The description is as above. The note with it: protein: recombinant; tags: N-terminal GST; label: 5'-6-FAM on sense strand; blunt, two G-U wobbles.
Data set [5] deals with hStau1 deltaN (dsRBD2 removed) (Homo sapiens, UniProt O95793 182-577). Described as above. The note with it: protein: recombinant; label: 5'-6-FAM on sense strand; blunt, two G-U wobbles.
The target in data set [6] is T4, hStau1 FL (Homo sapiens, UniProt O95793 1-577). The description is as above. The note with it: protein: recombinant, tags: tag removed or His/GST not specified, chain copies: 2.
Data set [7] deals with hStau1 base-contact mutant (Homo sapiens, UniProt O95793 182-360, S187A;P211A;Q293A). The data set is described as above. The conditions noted are these: protein: recombinant, blunt.
Chain of hStau1 base-contact mutant (O95793 182-360 S187A/P211A/Q293A): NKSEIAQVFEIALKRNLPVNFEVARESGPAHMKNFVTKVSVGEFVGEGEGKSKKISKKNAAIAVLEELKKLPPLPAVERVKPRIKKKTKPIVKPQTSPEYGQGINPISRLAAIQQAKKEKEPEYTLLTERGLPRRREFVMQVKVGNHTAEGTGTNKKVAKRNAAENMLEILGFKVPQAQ
Data set [8] addresses hStau1 dsRBD3-4 linker charge mutant (Homo sapiens, UniProt O95793 182-360, K266A;K267E;K268A;K270A). The description is as above. The note with it: protein: recombinant; label: 5'-6-FAM on sense strand; blunt, two G-U wobbles.
Data set [9] deals with hStau1 dsRBD3-4 short linker (Homo sapiens, UniProt O95793 182-253+=GSSGSGSS+284-360, internal_change). The description is as above. The conditions noted are these: protein: recombinant; label: 5'-6-FAM on sense strand; blunt, two G-U wobbles.
In a further data set the target is GST-hStau1 dsRBD3 (Homo sapiens, UniProt O95793 182-255). Described as above. The conditions noted are these: protein: recombinant; tags: N-terminal GST; label: 5'-6-FAM on sense strand; blunt, two G-U wobbles.
Another data set concerns the target GST-hStau1 dsRBD4 (Homo sapiens, UniProt O95793 284-358). Described as above. The note with it: protein: recombinant; tags: N-terminal GST; label: 5'-6-FAM on sense strand; blunt, two G-U wobbles.
Data set [10] addresses hStau1 dsRBD3-4 interface mutant (Homo sapiens, UniProt O95793 182-360, N197A;R342A). Put plainly: fluorescence anisotropy; no effect on affinity vs wt; FA: 10 nM 5'-FAM RNA, 20 mM Hepes pH 7.5, 150 mM KCl, RT (19-21 C); EMSA: 1 uM RNA, same buffer, 45 min on ice. The note with it: protein: recombinant; label: 5'-6-FAM on sense strand; blunt, two G-U wobbles.
The target of data set [11] is hStau1 dsRBD4 backbone mutant (Homo sapiens, UniProt O95793 182-360, R315A;R317A;K337E;K338A;K341A). In words: fluorescence anisotropy; FA: 10 nM 5'-FAM RNA, 20 mM Hepes pH 7.5, 150 mM KCl, RT (19-21 C); EMSA: 1 uM RNA, same buffer, 45 min on ice. The conditions noted are these: protein: recombinant; label: 5'-6-FAM on sense strand; blunt, two G-U wobbles.
Data set [12] addresses hStau1 dsRBD3 backbone mutant (Homo sapiens, UniProt O95793 182-360, H212A;K214A;K234E;K235A;K238A). Described as above. The conditions noted are these: protein: recombinant; label: 5'-6-FAM on sense strand; blunt, two G-U wobbles.
The target of data set [13] is T4, hStau1 FL. The data set is described as above. The conditions noted are these: protein: recombinant; tags: tag removed or His/GST not specified; chain copies: 2; label: 5'-6-FAM; blunt.

Substitutions are numbered along the chain they refer to.

Chain of hStau1 dsRBD3-4 interface mutant (O95793 182-360 N197A/R342A): as the sequence (O95793 182-360 S187A/P211A/Q293A) above, with A6S, N16A, A30P, A112Q, R161A counted along it

B1: bcd III (structured_RNA)
RNA: CGCUAUUCGCCUUAGAUGUAUCUGGGUGGCUGCUCCACUAAAGCCCGGGAAUAUGCAACCAGUUACAUUUGAGGCCAUUUGGGCUUAAGCG
In the case of B1, the binding signal was < 3 fold reduction vs wt in data set [1], ~10 fold reduction vs wt (almost) in [2] and ~3.5 fold reduction vs wt with dStau S581A Q718A.

B2: human Staufen1 full-length (natural protein, UniProt O95793 1-577, looked up)
chain: MSQVQVQVQNPSAALSGSQILNKNQSLLSQPLMSIPSTTSSLPSENAGRPIQNSALPSASITSTSAAAESITPTVELNALCMKLGKKPMYKPVDPYSRMQSTYNYNMRGGAYPPRYFYPFPVPPLLYQVELSVGGQQFNGKGKTRQAAKHDAAAKALRILQNEPLPERLEVNGRESEEENLNKSEISQVFEIALKRNLPVNFEVARESGPPHMKNFVTKVSVGEFVGEGEGKSKKISKKNAAIAVLEELKKLPPLPAVERVKPRIKKKTKPIVKPQTSPEYGQGINPISRLAQIQQAKKEKEPEYTLLTERGLPRRREFVMQVKVGNHTAEGTGTNKKVAKRNAAENMLEILGFKVPQAQPTKPALKSEEKTPIKKPGDGRKVTFFEPGSGDENGTSNKEDEFRMPYLSHQQLPAGILPMVPEVAQAVGVSQGHHTKDFTRAAPNPAKATVTAMIARELLYGGTSPTAETILKNNISSGHVPHGPLTRPSEQLDYLSRVQGFQVEYKDFPKNNKNEFVSLINCSSQPPLISHGIGKDVESCHDMAALNILKLLSELDQQSTEMPRTGNGPMSVCGRC
notes: human Staufen1 (hStau1), GenBank AAD17531.1, codon optimized; full-length protein; the truncation 182-577 implies a length of 577 aa; Constructs carried either an N-terminal GST tag or a His tag; The His tag was removed by TEV; the GST tag was either kept (elution with glutathione) or cleaved by TEV; also called hStau1 FL; hStau1
Turning to B2, in data set [3], the stoichiometry N (in general, a count of units in the complex or per binding partner) worked out at 2.

B3: ARF1 SBS (dsRNA)
RNA 1: UGAGUGCCAGAAGCUGCCUC
RNA 2: GAGGCAGUUUCUGGUACUCA
Consider B3, for which the Kd – broadly, the constant that tells how readily two partners part at equilibrium – in [4] amounted to 10 ± 2 nM; with hStau1 dsRBD3-4, 14 ± 4 nM; with GST-hStau1 dsRBD3-4, 9 ± 2 nM; in data set [5] it was 9 ± 3 nM; in the data set with hStau1 FL [6] (label: 5'-6-FAM on sense strand, blunt, two G-U wobbles), 6 ± 1 nM. For the same molecule, the binding signal in data set [7] (label: 5'-6-FAM on sense strand, two G-U wobbles) was ~3 fold reduction vs wt; in data set [8], ~3 fold reduction vs wt; in [9], ~8 fold reduction vs wt; in the data set with GST-hStau1 dsRBD3, ~10 fold reduction vs tandem dsRBD3-4; in the data set with GST-hStau1 dsRBD4, ~1000 fold reduction vs tandem dsRBD3-4; in data set [11], ~4.5 fold reduction vs wt. Besides, the binding signal in data set [12] was ~8 fold reduction vs wt. The binding result in data set [10] is given as “binds”.
In the case of UGAGUGCCAGAAGCUGCCUC (ssRNA) [ssARF1 (sense strand)], the Kd with hStau1 FL [6] (label: 5'-6-FAM, single strand) came to 96 ± 27 nM.

B4: hStau1 aa 182-577 (N-terminal deletion removing dsRBD2) (domain or fragment, human, UniProt O95793 182-577, looked up)
chain: NKSEISQVFEIALKRNLPVNFEVARESGPPHMKNFVTKVSVGEFVGEGEGKSKKISKKNAAIAVLEELKKLPPLPAVERVKPRIKKKTKPIVKPQTSPEYGQGINPISRLAQIQQAKKEKEPEYTLLTERGLPRRREFVMQVKVGNHTAEGTGTNKKVAKRNAAENMLEILGFKVPQAQPTKPALKSEEKTPIKKPGDGRKVTFFEPGSGDENGTSNKEDEFRMPYLSHQQLPAGILPMVPEVAQAVGVSQGHHTKDFTRAAPNPAKATVTAMIARELLYGGTSPTAETILKNNISSGHVPHGPLTRPSEQLDYLSRVQGFQVEYKDFPKNNKNEFVSLINCSSQPPLISHGIGKDVESCHDMAALNILKLLSELDQQSTEMPRTGNGPMSVCGRC
notes: human Staufen1 (hStau1), GenBank AAD17531.1, aa 182-577 (dsRBD3, dsRBD4, TBD, SSM, dsRBD5); GST was kept or cleaved; also called hStau1^182-577
B4: the “stoichiometry N” value in data set [3] stood at 2.

B5: dsAU (dsRNA)
RNA 1: UAUUAUAUAAAUUAUAAAAU
RNA 2: AUUUUAUAAUUUAUAUAAUA
As for B5, the binding signal with hStau1 FL [13] was ~4 fold reduction vs ARF1 SBS; in data set [7] (label: 5'-6-FAM) it was ~1.5 fold reduction vs wt on dsAU.
